Experimental data taken from US6685945.

Key:
[1] = target: OmpL1, 31 kD outer membrane protein of Leptospira alstoni (native protein) (Leptospira alstoni serovar grippotyphosa); assay: immunoelectron microscopy of intact L. alstoni, protein G-colloidal gold (control serum)
[2] = test system: OmpL1-PhoA fusion protein [phosphatase: P00634]
OmpL1-PhoA fusion protein [phosphatase: P00634], sequence (P00634 27-471): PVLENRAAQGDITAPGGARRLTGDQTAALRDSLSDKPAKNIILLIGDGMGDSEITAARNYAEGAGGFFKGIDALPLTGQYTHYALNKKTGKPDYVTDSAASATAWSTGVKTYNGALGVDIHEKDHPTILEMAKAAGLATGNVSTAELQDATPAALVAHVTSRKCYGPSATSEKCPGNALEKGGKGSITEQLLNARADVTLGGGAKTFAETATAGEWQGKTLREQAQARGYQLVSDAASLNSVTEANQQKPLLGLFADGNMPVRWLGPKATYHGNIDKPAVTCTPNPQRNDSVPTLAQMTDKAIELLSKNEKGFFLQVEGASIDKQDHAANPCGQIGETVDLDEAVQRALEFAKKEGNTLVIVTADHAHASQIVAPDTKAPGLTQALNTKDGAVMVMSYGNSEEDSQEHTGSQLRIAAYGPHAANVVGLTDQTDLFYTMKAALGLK

Row | Substance | gold particles per twenty organisms (particles per twenty organisms) [1] | cleavage of the OmpL1-PhoA fusion protein in E. coli IT41 [2]
1 | preimmune serum from the same rabbit as the anti-OmpL1 antiserum (antibody) | 1 | 
2 | E. coli leader peptidase 1 (strain IT41, temperature sensitive mutation) |  | Cleavage of the OmpL1-PhoA fusion protein was demonstrated at the permissive temperature of 32° C., but not at the restrictive temperature of 37 °C
